Laboratory results published in patent US11339434B2, “Methods for determining gene functions” (The Regents of the University of California, priority 2016, dated 2022).

Assay: methylation of 6-mercaptopurine by peptide barcoded TPMT, LC-ESI-MS
Type: biochemical
Details: 1 mM 6-mercaptopurine, 37° C., approximately 24 hours
Description: A polynucleotide encoding a peptide barcoded human thiopurine methyl transferase (TPMT) was incubated for 3 hours at 37° C. in the PURExpress® cell-free transcription/translation system (New England Biolabs, Inc. (Ipswich, Mass.)) according to the manufacturer's protocol in the presence (+protease) or the absence (−protease) of the WELQut-protease. […] After cell-free transcription/translation of peptide barcoded thiopurine methyl transferase (TPMT), 1 mM 6-mercaptopurine and phosphate buffered saline (0.1×) were added with (+cofactor) or without (−cofactor) 3.2 mM of the cofactor S-adenosyl-methionine (SAM). After incubation at 37° C., […] for approximately 24 hours (no shaking), methylation of 6-mercaptopurine and the presence of peptide barcode were determined by liquid chromatography-electrospray ionization-mass spectrometry (LC-ESI-MS).

B1: TPMT: peptide barcoded human thiopurine methyl transferase produced by cell-free transcription/translation (protein, UniProt P51580 1-245, looked up)
Thiopurine S-methyltransferase: MDGTRTSLDIEEYSDTEVQKNQVLTLEEWQDKWVNGKTAFHQEQGHQLLKKHLDTFLKGKSGLRVFFPLCGKAVEMKWFADRGHSVVGVEISELGIQEFFTEQNLSYSEEPITEIPGTKVFKSSSGNISLYCCSIFDLPRTNIGKFDMIWDRGALVAINPGDRKCYADTMFSLLGKKFQYLLCVLSYDPTKHPGPPFYVPHAEIERLFGKICNIRCLEKVDAFEERHKSWGIDCLFEKLYLLTEK
modifications: peptide barcode
notes: peptide barcoded human thiopurine methyl transferase produced by cell-free transcription/translation
- methylated 6-mercaptopurine detected by mass spectrometry (absence of cofactor S-adenosyl-methionine, absence of WELQut-protease): no methylated 6-mercaptopurine nor peptide barcode were detected
- methylated 6-mercaptopurine detected by mass spectrometry (absence of cofactor S-adenosyl-methionine, presence of WELQut-protease): no methylated 6-mercaptopurine was detected
- methylated 6-mercaptopurine detected by mass spectrometry (presence of cofactor S-adenosyl-methionine (3.2 mM) and WELQut-protease): methylated 6-mercaptopurine and the peptide barcode were detected
- methylated 6-mercaptopurine detected by mass spectrometry (presence of cofactor S-adenosyl-methionine (3.2 mM), absence of WELQut-protease): methylated 6-mercaptopurine was detected
